Publication PMC6086383 (Archives of biochemistry and biophysics, 2018)

Target: porcine milk butyrylcholinesterase (Sus scrofa (domestic pig), UniProt A0A4X1VEU5)
Test: ELISA

porcine milk butyrylcholinesterase, sequence (P32752 whole entry): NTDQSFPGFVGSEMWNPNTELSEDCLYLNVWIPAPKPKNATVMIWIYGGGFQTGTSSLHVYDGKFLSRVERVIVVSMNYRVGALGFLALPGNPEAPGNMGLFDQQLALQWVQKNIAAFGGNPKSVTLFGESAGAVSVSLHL

B1: mouse anti-HuBChE monoclonal antibody B2 18-5 (antibody, V domains shown)
VH: QVQLQQSGAELVRPGSSVKISCKASGYAFSDYWMNWVKQRPGQGLEWIGQIYPGDGDTYYNGKFKGKATLTADKSSSTAYMQLSSLISEDSAVYFCARSRPLLDYSMHYWGQGASVTVSS
VL: DIQMTQSSSSFSVSLGDRVTITCKTSEDIYNRLAWYQQKPGNAPRLLISGATSLETGVPSRFSGSGSGEDFTLSITSLQTEDVATYYCQQYWSTPYTFGGGTKLEIK
B1: no binding.
